Experimental data published in patent US20190016816A1.

Molecular target: FcγRIIa (CD32a His131) (UniProt P12318)
Experiment: flow cytometry, CHO cells stably expressing CD32a His131, fluorescent anti-human IgG secondary, MFI (mean)

Chain of FcγRIIa (CD32a His131) (P12318 34-317 limits assumed): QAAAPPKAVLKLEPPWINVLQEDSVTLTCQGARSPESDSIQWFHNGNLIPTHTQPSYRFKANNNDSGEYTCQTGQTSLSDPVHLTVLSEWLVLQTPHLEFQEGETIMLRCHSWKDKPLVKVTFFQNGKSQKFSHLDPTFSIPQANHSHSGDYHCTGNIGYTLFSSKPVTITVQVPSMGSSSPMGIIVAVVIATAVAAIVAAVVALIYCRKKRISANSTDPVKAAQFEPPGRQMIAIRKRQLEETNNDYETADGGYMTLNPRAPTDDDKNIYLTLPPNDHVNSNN

control human IgG1 molecule (antibody)
EC50 (read off the curve): 9 nM
